In patent publication US20190085055A1:
Several values for one entry are separate records, joined by “and”; a condition that tells them apart may be missing. Equal entries are not always repeated. Values belong to the substance of their own block, whether it stands above or below them.

Columns and labels:
[1] = target: D3H44 light chain F116A_L135A; assay: LCCA (SPR), competitor L1 L135W
[2] = target: D3H44 light chain F116A_L135V; assay: LCCA (SPR), competitor L1 L135W
[3] = target: D3H44 light chain, wild type; assay: LCCA (SPR), competitor L2 F116A
D3H44 light chain L135W [4] = assay: LCCA (SPR), competitor L2 F116A_L135A
[5] = target: D3H44 light chain L135W_N137A; assay: LCCA (SPR), competitor L2 F116A_L135A
D3H44 light chain L135W [6] = assay: LCCA (SPR), competitor L2 F116A_L135V
D3H44 light chain F116S = assay: LCCA (SPR), competitor L2 F118W_V133S
[7] = target: D3H44 light chain F116A_L135A; assay: LCCA (SPR), competitor L1 L135W_N137A
[8] = target: D3H44 light chain F118W_V133S; assay: LCCA (SPR), competitor L1 F116S
D3H44 light chain F116A = assay: LCCA (SPR), competitor L1 WT
[9] = target: D3H44 light chain Q124E_Q160E_T178D; assay: LCCA: H1 co-expressed with L1 and L2, SPR read-out of light chain tags; competing chain L2
[10] = target: D3H44 light chain Q124R_Q160K_T178R; assay: LCCA: H1 co-expressed with L1 and L2, SPR read-out of light chain tags; competing chain L1
D3H44 light chain S176L [11] = assay: LCCA (SPR), competitor L2 WT
D3H44 light chain S176L [12] = assay: LCCA: H2 co-expressed with L1 and L2, SPR read-out of light chain tags; competing chain L1
D3H44 light chain V133S [13] = assay: LCCA: H2 co-expressed with L1 and L2, SPR read-out of light chain tags; competing chain L2
D3H44 light chain S176L [14] = assay: LCCA (SPR), competitor L1 V133S
[15] = target: D3H44 light chain, wild type; assay: LCCA (SPR), competitor L1 S176L
D3H44 light chain V133S [16] = assay: LCCA (SPR), competitor L2 S176L
[17] = target: D3H44 light chain Q124R_Q160K_T178R; assay: LCCA: H2 co-expressed with L1 and L2, SPR read-out of light chain tags; competing chain L1
[18] = target: D3H44 light chain Q124E_Q160E_T178D; assay: LCCA: H2 co-expressed with L1 and L2, SPR read-out of light chain tags; competing chain L2
[19] = target: D3H44 light chain V133A_Q160K_T178R; assay: LCCA: H2 co-expressed with L1 and L2, SPR read-out of light chain tags; competing chain L1
[20] = target: D3H44 light chain Q124E_V133W_Q160E_T180E; assay: LCCA: H2 co-expressed with L1 and L2, SPR read-out of light chain tags; competing chain L2
[21] = target: D3H44 light chain Q124E_V133W_Q160E_T180E; assay: LCCA (SPR), competitor L2 V133A_Q160K_T178R
[22] = target: D3H44 light chain V133A_Q160K_T178R; assay: LCCA (SPR), competitor L1 Q124E_V133W_Q160E_T180E
[23] = target: D3H44 light chain Q124E_V133W_Q160E_T180E; assay: LCCA: H1 co-expressed with L1 and L2, SPR read-out of light chain tags; competing chain L2
[24] = target: D3H44 light chain V133A_Q160K_T178R; assay: LCCA: H1 co-expressed with L1 and L2, SPR read-out of light chain tags; competing chain L1
D3H44 light chain Q38E [25] = assay: LCCA (SPR), competitor L1 Q38M; second of two ratios in the cell
D3H44 light chain Q38E [26] = assay: LCCA (SPR), competitor L1 Q38M
D3H44 light chain Q38M [27] = assay: LCCA (SPR), competitor L2 Q38E; second of two ratios in the cell
D3H44 light chain Q38M [28] = assay: LCCA (SPR), competitor L2 Q38E; first of two ratios in the cell
D3H44 light chain Q38E [29] = assay: LCCA (SPR), competitor L1 Q38M; first of two ratios in the cell
D3H44 light chain Q38M [30] = assay: LCCA (SPR), competitor L2 Q38E

Substance: D3H44 heavy chain (Fab format) D146G_S186R
- H1 Readout (H1-L1) [9]: 84
- H1 Readout (H1-L2) [10]: 1

Substance: D3H44 heavy chain (Fab format) F174V_P175S_S188G
- H1 L1 of H1 L1:H1 L2 (screen) (D3H44 light chain S176L [11]): 53.4
- H2 Readout (H2-L2) (D3H44 light chain S176L [12]): 98
- H2 Readout (H2-L1) (D3H44 light chain V133S [13]): 1
- H2 L2 of H2 L2:H2 L1 (screen) (D3H44 light chain S176L [14]): 81.1
- H2 L2 of H2 L2:H2 L1 (verification) (D3H44 light chain S176L [14]): 68.1
- H1 L2 of H1 L1:H1 L2 (screen) [15]: 9.68
- H2 L1 of H2 L2:H2 L1 (screen) (D3H44 light chain V133S [16]): 1.44
- H2 L1 of H2 L2:H2 L1 (verification) (D3H44 light chain V133S [16]): 2.9

Substance: D3H44 heavy chain (Fab format) K145E_D146G_Q179D_S188L
- H2 Readout (H2-L2) [17]: 74
- H2 Readout (H2-L1) [18]: 2

Substance: D3H44 heavy chain (Fab format) K145T_Q179D_S188F
- H2 Readout (H2-L2) [19]: 87
- H2 Readout (H2-L1) [20]: 14
- H2 L1 of H2 L2:H2 L1 (screen) [21]: 1.5
- H2 L1 of H2 L2:H2 L1 (verification) [21]: 11.5
- H2 L2 of H2 L2:H2 L1 (screen) [22]: 87.3
- H2 L2 of H2 L2:H2 L1 (verification) [22]: 83.2

Second part, the substance after the results:

- H2 L2 of H2 L2:H2 L1 (screen) [1]: 77.4
- H2 L2 of H2 L2:H2 L1 (verification) [1]: 78.7
- H2 L2 of H2 L2:H2 L1 (screen) [2]: 62.7
- H2 L2 of H2 L2:H2 L1 (verification) [2]: 76.7
- H1 L1 of H1 L1:H1 L2 (screen) [3]: 58.7
- H2 L1 of H2 L2:H2 L1 (screen) (D3H44 light chain L135W [4]): 17.4
- H2 L1 of H2 L2:H2 L1 (verification) (D3H44 light chain L135W [4]): 10.2
- H2 L1 of H2 L2:H2 L1 (screen) [5]: 19.8
- H2 L1 of H2 L2:H2 L1 (screen) (D3H44 light chain L135W [6]): 34.6
- H2 L1 of H2 L2:H2 L1 (verification) (D3H44 light chain L135W [6]): 19.1
- H2 L1 of H2 L2:H2 L1 (screen) (D3H44 light chain F116S): 4.6
- H2 L1 of H2 L2:H2 L1 (verification) (D3H44 light chain F116S): 40.9 and 38.1
- H2 L2 of H2 L2:H2 L1 (screen) [7]: 73.6
- H2 L2 of H2 L2:H2 L1 (screen) [8]: 76.5
- H2 L2 of H2 L2:H2 L1 (verification) [8]: 38.1 and 40.9
- H1 L2 of H1 L1:H1 L2 (screen) (D3H44 light chain F116A): 30.5
Substance: D3H44 heavy chain (Fab format) A139W

- H1 L1 of H1 L1:H1 L2 (screen) [21]: 97.4
- H1 L1 of H1 L1:H1 L2 (verification) [21]: 93.6
- H1 Readout (H1-L1) [23]: 104
- H1 Readout (H1-L2) [24]: 1
- H1 L2 of H1 L1:H1 L2 (screen) [22]: 0.4
- H1 L2 of H1 L1:H1 L2 (verification) [22]: 0.6
Substance: D3H44 heavy chain (Fab format) L143A_D144G_Q179R

- H1 L2 of H1 L1:H1 L2 (verification) (D3H44 light chain Q38E [25]): 40.6
- H1 L2 of H1 L1:H1 L2 (screen) (D3H44 light chain Q38E [26]): 33.3
- H1 L1 of H1 L1:H1 L2 (verification) (D3H44 light chain Q38M [27]): 58.8
- H1 L1 of H1 L1:H1 L2 (verification) (D3H44 light chain Q38M [28]): 60.2
- H1 L2 of H1 L1:H1 L2 (verification) (D3H44 light chain Q38E [29]): 31.3
- H1 L1 of H1 L1:H1 L2 (screen) (D3H44 light chain Q38M [30]): 69.6
Substance: D3H44 heavy chain (Fab format) Q39M
